Results published in patent US20190071505A1 (UNIVERSITY OF NORTH TEXAS HEALTH SCIENCE CENTER, published 2019).

B1: Lectin-like transcript 1 (LLT1) (ligand)
chain: MHDSNNVEKDITPSELPANPGCLHSKEHSIKATLIWRLFFLIMFLTIIVCGMVAALSAIRANCHQEPSVCLQAACPESWIGFQRKCFYFSDDTKNWTSSQRFCDSQDADLAQVESFQELNFLLRYKGPSDHWIGLSREQGQPWKWINGTEWTRQFPILGAGECAYLNDKGASSARHYTERKWICSKSDIHV
B2: mouse anti-human LLT1 mAb (clone #2E5) (antibody, V domains shown)
VH: EVQLQQSGADLVKPGASVKLSCTASGFNIKDTYMHWVIQRPEQGLDWIGRIDPANGNTNYDPKFRAKATITADTSSNTAYLQLSSLTSDDTAVYYCAGMDYHFDFWGQGTTLTVSS
VL: DIVMTQSPATLSVTPGDRVSLSCRASQSISDYLHWYQQKSHESPRLLIKYASQSISGIPSRFSGSGSGSDFTLSINSVEPEDVGVFYCQNGHSFPLTFGAGTKLELRR
notes: Mouse monoclonal antibody from hybridoma 2E5; It was detected with a PE-conjugated goat anti-mouse IgG secondary antibody; also called 2E5 mAb

Assays:
[1] = biological target: T1, NK cell inhibitory receptor NKRP1A (CD161) (human, UniProt Q12918 1-225); assay: cell-based or functional assay
T1 sequence (looked up): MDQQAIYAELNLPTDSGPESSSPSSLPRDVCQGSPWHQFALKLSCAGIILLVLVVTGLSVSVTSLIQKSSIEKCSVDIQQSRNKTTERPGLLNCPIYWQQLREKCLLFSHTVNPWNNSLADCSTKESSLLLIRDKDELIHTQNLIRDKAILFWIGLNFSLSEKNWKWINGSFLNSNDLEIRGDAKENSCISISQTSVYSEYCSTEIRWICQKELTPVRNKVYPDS

[2] = biological target: B1; assay: flow cytometry on 22Rv1 cells (endogenous LLT1), PE goat anti-mouse IgG secondary, ratio to mIgG1 isotype control; clone taken from the FIG. 2 legend
[3] = biological target: B1; assay: flow cytometry on DU145 cells (endogenous LLT1), PE goat anti-mouse IgG secondary, ratio to mIgG1 isotype control; clone taken from the FIG. 2 legend

| Binder | percent of MDA-MB-436 LLT1 siRNA-transfected cells killed by NK cells, 5:1 E:T ratio (51Cr release) [1] [%] | percent of MDA-MB-436 LLT1 siRNA-transfected cells killed by NK cells, 25:1 E:T ratio (51Cr release) [1] [%] | percent of MDA-MB-436 scramble siRNA-transfected cells killed by NK cells, 5:1 E:T ratio (51Cr release) [1] [%] | percent of MDA-MB-436 scramble siRNA-transfected cells killed by NK cells, 25:1 E:T ratio (51Cr release) [1] [%] | MFIR (mean fluorescence intensity ratio) [2] | MFIR (mean fluorescence intensity ratio) [3] |
| --- | --- | --- | --- | --- | --- | --- |
| B1 | 21.8 | 63.4 | 18.9 | 42.2 | – | – |
| B2 | – | – | – | – | 14.4 | 12 |
